Experimental data as given in paper PMC11267847.

Key:
Assay in all cases: EMSA
Settings in all cases: EMSA kit (Biyuntian): 50 ng biotin-labeled DNA, 2 uL binding buffer, 2 ug protein; competitors 5 ug unlabeled DNA; buffer composition, pH and temperature not …
[1] = target: T1, Gsm1p (Pichia pastoris (Komagataella phaffii), strain SMD1168?) (UniProt C4R1K8)
T1 sequence: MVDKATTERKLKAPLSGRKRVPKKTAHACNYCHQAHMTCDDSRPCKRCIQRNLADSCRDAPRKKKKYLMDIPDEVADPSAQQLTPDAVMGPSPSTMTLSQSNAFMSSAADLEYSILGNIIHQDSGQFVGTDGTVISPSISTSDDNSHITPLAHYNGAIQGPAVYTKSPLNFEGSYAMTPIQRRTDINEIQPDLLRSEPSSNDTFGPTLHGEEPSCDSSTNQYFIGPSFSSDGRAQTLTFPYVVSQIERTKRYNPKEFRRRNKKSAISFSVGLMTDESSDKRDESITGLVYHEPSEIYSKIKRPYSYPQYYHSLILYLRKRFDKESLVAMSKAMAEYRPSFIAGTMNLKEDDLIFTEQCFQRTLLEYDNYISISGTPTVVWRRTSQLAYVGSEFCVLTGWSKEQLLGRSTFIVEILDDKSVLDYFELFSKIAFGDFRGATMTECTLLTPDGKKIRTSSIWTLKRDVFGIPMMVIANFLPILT

[2] = target: T2, Hot1p (Pichia pastoris (Komagataella phaffii), strain SMD1168?) (UniProt C4QW90)
T2 sequence: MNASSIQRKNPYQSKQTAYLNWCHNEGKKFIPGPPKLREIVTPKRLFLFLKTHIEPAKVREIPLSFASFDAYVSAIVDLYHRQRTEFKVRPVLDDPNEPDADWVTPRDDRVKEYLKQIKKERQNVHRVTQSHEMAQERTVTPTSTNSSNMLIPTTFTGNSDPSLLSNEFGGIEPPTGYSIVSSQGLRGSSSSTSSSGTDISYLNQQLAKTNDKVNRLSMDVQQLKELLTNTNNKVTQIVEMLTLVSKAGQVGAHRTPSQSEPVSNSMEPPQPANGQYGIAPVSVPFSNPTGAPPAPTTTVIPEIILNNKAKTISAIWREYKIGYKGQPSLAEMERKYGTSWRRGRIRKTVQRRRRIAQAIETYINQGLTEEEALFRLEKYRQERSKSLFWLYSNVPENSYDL

[3] = target: T3, Loc1p (Pichia pastoris (Komagataella phaffii), cloned from P. pastoris genome, strain SMD1168?) (UniProt C4QX18)
T3 sequence: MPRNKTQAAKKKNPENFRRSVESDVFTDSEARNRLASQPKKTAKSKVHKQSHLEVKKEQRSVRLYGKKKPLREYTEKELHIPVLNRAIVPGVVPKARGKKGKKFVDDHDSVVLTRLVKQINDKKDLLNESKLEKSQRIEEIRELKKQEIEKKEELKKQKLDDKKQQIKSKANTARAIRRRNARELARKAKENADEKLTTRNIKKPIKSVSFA

| Sequence | binding [1] | binding [2] | binding [3] |
| --- | --- | --- | --- |
| AGATCTTTTTTGTAGAAATGTCTTGGTGTCCTCGTCCAATCAGGTAGCCATCTCTGAAATATCTGGCTCCGTTGCAACTCCGAACGACCTGCTGGCAACGTAAAATTCTCCGGGGTAAAACTTAAATGTGGAGTAATGGAACCAGAAACGTCTCTTCCCTTCTCTCTCCTTCCACCGCCCGTTACCGTCCCTAGGAAATTTTAC (double strand) [pGAP-AB] | binds | binds | binds |
| AGCAGCCCAGGGATGGAAAAGTCCCGGCCGTCGCTGGCAATAATAGCGGGCGGACGCATGTCATGAGATTATTGGAAACCACCAGAATCGAATATAAAAGGCGAACACCTTTCCCAATTTTGGTTTCTCCTGACCCAAAGACTTTAAATTTAATTTATTTGTCCCTATTTCAATCAATTGAACAACTATTTCGAAACG (double strand) [pGAP-CD] | binds | binds | no binding |
| CATGCGTCCGCCCGCTATTATTGCCAGCGACGGCCGGGACTTTTCCATCCCTGGGCTGCTAGGTCGGGTACACGACCTCCGTTTTACCCGCAACGTAATGCTGGGAAGAGCATTGCTGCAAGGGGGCCGTAGAAGAAGCTCTCCAGCAGAGTAAAATTTCCTAGGGACGGTAACGGGCGGTGGAAGGAGAGAGAAGGGAAGAGA (double strand) [pGAP-BC] | binds | binds | binds |
